Reference: PMC7822796, “Pleiotropic function of the SQUAMOSA PROMOTER-BINDING PROTEIN-LIKE gene TaSPL14 in wheat plant architecture”

T1: GST-TaSPL14 (UniProt A0A3B6LP29 1-396)
T1 sequence: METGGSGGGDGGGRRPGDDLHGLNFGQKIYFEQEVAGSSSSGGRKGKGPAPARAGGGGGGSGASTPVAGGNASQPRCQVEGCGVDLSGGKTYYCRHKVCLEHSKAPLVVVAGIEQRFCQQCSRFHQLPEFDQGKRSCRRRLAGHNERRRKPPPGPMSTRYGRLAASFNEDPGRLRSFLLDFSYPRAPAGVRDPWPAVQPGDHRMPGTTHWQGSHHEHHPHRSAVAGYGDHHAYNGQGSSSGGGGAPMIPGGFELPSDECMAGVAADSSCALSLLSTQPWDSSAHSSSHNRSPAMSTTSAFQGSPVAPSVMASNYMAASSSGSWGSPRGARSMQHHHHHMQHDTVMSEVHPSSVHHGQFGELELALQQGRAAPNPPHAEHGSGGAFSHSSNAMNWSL

B1: TaRAP2.11 promoter probe (dsDNA)
DNA 1: ATGACTTGATGCGGTACAATAATATTAAGC
DNA 2: GCTTAATATTATTGTACCGCATCAAGTCAT
B2: TaERF1 promoter probe (dsDNA)
DNA 1: AGAAAAGAAAAAAGTACGATCATTCCTCGT
DNA 2: ACGAGGAATGATCGTACTTTTTTCTTTTCT
B3: TaEIL1 promoter probe (dsDNA)
DNA 1: GCCAAAACTTTTAGTACAACTTAAGTCTTT
DNA 2: AAAGACTTAAGTTGTACTAAAAGTTTTGGC

These binders were tested against T1, GST-TaSPL14 (assay: EMSA; 10 mM ZnCl2, poly dI-dC; competed by unlabeled probe; EMSA: 1x binding buffer (printed as 100 mM Tris, 500 mM KCl, 10 mM DTT, pH 7.5), 10% glycerol, 0.5 mM EDTA, 10 mM ZnCl2, 50 ng/uL poly dI-dC, 20 uL, 30 min at room temperature, 6% native PAGE). Conditions: protein: recombinant; tags: GST (N-terminal, pGEX6P-1); label: 5' biotin; blunt.

Question: Does B1 bind?
Answer: binds

Question: Does B2 bind?
Answer: binds

Question: Does B3 bind?
Answer: binds
